B1: USP39 (parent)
chain: TLSEAYIQIWKRRDNDETNQQGA
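Note: lentivirally expressed fusions sorted by FACS into six bins by GFP to DsRed ratio, PSI derived from sequencing read proportions per bin multiplied by bin number.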

In the data set the parent is B1. Briefly: protein stability index of a GFP-peptide fusion (GPS, HEK-293T) (PSI 1-6); higher = more stable. To be noted: c terminus: native.
On to TLSEAYIPIWKRRDNDETNQQGA [Q8P], for which the protein stability index was found to be 1.9.

For the variant TLSEAYITIWKRRDNDETNQQGA [Q8T], the protein stability index turned out to be 1.98.

On to TLSEAYIIIWKRRDNDETNQQGA [Q8I], for which the protein stability index came to 1.5.

As for TLSEAYIGIWKRRDNDETNQQGA [Q8G], the protein stability index amounted to 2.22.

On to TLSEAYILIWKRRDNDETNQQGA [Q8L], for which the protein stability index was 1.42.

TLSEAYIFIWKRRDNDETNQQGA [Q8F]: the protein stability index came out at 2.

As to TLSEAYIRIWKRRDNDETNQQGA [Q8R], the protein stability index came out at 3.93.

For the variant TLSEAYIAIWKRRDNDETNQQGA [Q8A], the protein stability index was 2.92.

As to TLSEAYIEIWKRRDNDETNQQGA [Q8E], the protein stability index was found to be 3.

Consider TLSEAYIYIWKRRDNDETNQQGA [Q8Y], for which the protein stability index was found to be 2.07.

Take TLSEAYIMIWKRRDNDETNQQGA [Q8M]: the protein stability index was 1.59.

TLSEAYIHIWKRRDNDETNQQGA [Q8H]: the protein stability index is 2.24.

As for TLSEAYISIWKRRDNDETNQQGA [Q8S], the protein stability index amounted to 2.48.

For the variant TLSEAYINIWKRRDNDETNQQGA [Q8N], the protein stability index stood at 2.63.

For the variant TLSEAYIKIWKRRDNDETNQQGA [Q8K], the protein stability index was 3.05.

With TLSEAYIVIWKRRDNDETNQQGA [Q8V], the protein stability index is 1.78.

Consider TLSEAYIDIWKRRDNDETNQQGA [Q8D], for which the protein stability index amounted to 2.48.

As to TLSEAYICIWKRRDNDETNQQGA [Q8C], the protein stability index is 1.95.

For the variant TLSEAHIQIWKRRDNDETNQQGA [Y6H], the protein stability index was determined as 3.07.

With TLSEAKIQIWKRRDNDETNQQGA [Y6K], the protein stability index was determined as 3.02.

For TLSEAPIQIWKRRDNDETNQQGA [Y6P], the protein stability index came out at 2.61.

As for TLSEANIQIWKRRDNDETNQQGA [Y6N], the protein stability index came to 1.9.

TLSEACIQIWKRRDNDETNQQGA [Y6C]: the protein stability index stood at 2.98.

With TLSEAVIQIWKRRDNDETNQQGA [Y6V], the protein stability index came out at 3.28.

Turning to TLSEARIQIWKRRDNDETNQQGA [Y6R], the protein stability index was determined as 3.02.

On to TLSEAAIQIWKRRDNDETNQQGA [Y6A], for which the protein stability index was found to be 3.45.

As to TLSEAGIQIWKRRDNDETNQQGA [Y6G], the protein stability index came out at 3.19.

For TLSEASIQIWKRRDNDETNQQGA [Y6S], the protein stability index is 2.89.

Consider TLSEADIQIWKRRDNDETNQQGA [Y6D], for which the protein stability index is 3.66.

On to TLSEALIQIWKRRDNDETNQQGA [Y6L], for which the protein stability index is 2.2.

Consider TLSEATIQIWKRRDNDETNQQGA [Y6T], for which the protein stability index was found to be 3.32.

Regarding TLSEAFIQIWKRRDNDETNQQGA [Y6F], the protein stability index is 2.9.

For the variant TLSEAMIQIWKRRDNDETNQQGA [Y6M], the protein stability index amounted to 2.26.

TLSEAEIQIWKRRDNDETNQQGA [Y6E]: the protein stability index amounted to 2.32.

TLSEAIIQIWKRRDNDETNQQGA [Y6I]: the protein stability index was 2.88.

Turning to TLSEAQIQIWKRRDNDETNQQGA [Y6Q], the protein stability index is 3.57.

Regarding TLSEIYIQIWKRRDNDETNQQGA [A5I], the protein stability index is 2.02.

Turning to TLSEMYIQIWKRRDNDETNQQGA [A5M], the protein stability index is 2.19.

Consider TLSESYIQIWKRRDNDETNQQGA [A5S], for which the protein stability index worked out at 2.31.

For the variant TLSEWYIQIWKRRDNDETNQQGA [A5W], the protein stability index stood at 2.18.

Take TLSEYYIQIWKRRDNDETNQQGA [A5Y]: the protein stability index amounted to 2.57.

With TLSEQYIQIWKRRDNDETNQQGA [A5Q], the protein stability index worked out at 2.69.

On to TLSETYIQIWKRRDNDETNQQGA [A5T], for which the protein stability index stood at 2.38.

Turning to TLSERYIQIWKRRDNDETNQQGA [A5R], the protein stability index is 3.47.

Take TLSECYIQIWKRRDNDETNQQGA [A5C]: the protein stability index turned out to be 3.14.

On to TLSEHYIQIWKRRDNDETNQQGA [A5H], for which the protein stability index was determined as 2.39.

Consider TLSEVYIQIWKRRDNDETNQQGA [A5V], for which the protein stability index is 2.93.

On to TLSELYIQIWKRRDNDETNQQGA [A5L], for which the protein stability index worked out at 2.29.

As for TLSEEYIQIWKRRDNDETNQQGA [A5E], the protein stability index is 2.75.

Consider TLSEFYIQIWKRRDNDETNQQGA [A5F], for which the protein stability index is 1.78.

For TLSEDYIQIWKRRDNDETNQQGA [A5D], the protein stability index was 3.45.

Consider TLSENYIQIWKRRDNDETNQQGA [A5N], for which the protein stability index stood at 2.6.

For TLSEGYIQIWKRRDNDETNQQGA [A5G], the protein stability index stood at 2.86.

Turning to TLSEKYIQIWKRRDNDETNQQGA [A5K], the protein stability index is 2.2.

On to TLSEPYIQIWKRRDNDETNQQGA [A5P], for which the protein stability index is 3.69.

Turning to TLSEAYIQHWKRRDNDETNQQGA [I9H], the protein stability index came out at 2.68.

Turning to TLSEAYIQSWKRRDNDETNQQGA [I9S], the protein stability index turned out to be 2.8.

With TLSEAYIQQWKRRDNDETNQQGA [I9Q], the protein stability index stood at 3.23.

Consider TLSEAYIQRWKRRDNDETNQQGA [I9R], for which the protein stability index turned out to be 3.3.

With TLSEAYIQFWKRRDNDETNQQGA [I9F], the protein stability index was found to be 2.03.

On to TLSEAYIQAWKRRDNDETNQQGA [I9A], for which the protein stability index was determined as 2.66.

TLSEAYIQCWKRRDNDETNQQGA [I9C]: the protein stability index is 2.12.

Take TLSEAYIQEWKRRDNDETNQQGA [I9E]: the protein stability index turned out to be 3.11.

For the variant TLSEAYIQPWKRRDNDETNQQGA [I9P], the protein stability index was 3.42.

With TLSEAYIQGWKRRDNDETNQQGA [I9G], the protein stability index was 2.54.

With TLSEAYIQKWKRRDNDETNQQGA [I9K], the protein stability index was 3.13.

Consider TLSEAYIQMWKRRDNDETNQQGA [I9M], for which the protein stability index turned out to be 2.5.

As to TLSEAYIQLWKRRDNDETNQQGA [I9L], the protein stability index was 2.21.

Take TLSEAYIQDWKRRDNDETNQQGA [I9D]: the protein stability index came out at 2.84.

For TLSEAYIQNWKRRDNDETNQQGA [I9N], the protein stability index stood at 3.46.

With TLSEAYKQIWKRRDNDETNQQGA [I7K], the protein stability index was 3.71.

On to TLSEAYHQIWKRRDNDETNQQGA [I7H], for which the protein stability index is 3.07.

In the case of TLSEAYVQIWKRRDNDETNQQGA [I7V], the protein stability index amounted to 2.72.

For TLSEAYDQIWKRRDNDETNQQGA [I7D], the protein stability index turned out to be 3.29.

In the case of TLSEAYWQIWKRRDNDETNQQGA [I7W], the protein stability index was found to be 3.49.

Consider TLSEAYYQIWKRRDNDETNQQGA [I7Y], for which the protein stability index is 2.18.

Consider TLSEAYCQIWKRRDNDETNQQGA [I7C], for which the protein stability index was found to be 2.41.

In the case of TLSEAYAQIWKRRDNDETNQQGA [I7A], the protein stability index was 2.93.

Take TLSEAYNQIWKRRDNDETNQQGA [I7N]: the protein stability index was found to be 2.82.

With TLSEAYRQIWKRRDNDETNQQGA [I7R], the protein stability index was 2.68.

Take TLSEAYTQIWKRRDNDETNQQGA [I7T]: the protein stability index turned out to be 2.53.

As to TLSEAYSQIWKRRDNDETNQQGA [I7S], the protein stability index stood at 3.32.

Take TLSEAYGQIWKRRDNDETNQQGA [I7G]: the protein stability index was 2.56.

With TLSEAYPQIWKRRDNDETNQQGA [I7P], the protein stability index is 3.23.

As for TLSEAYFQIWKRRDNDETNQQGA [I7F], the protein stability index came to 2.27.

On to TLSEAYLQIWKRRDNDETNQQGA [I7L], for which the protein stability index amounted to 2.44.

TLSEAYQQIWKRRDNDETNQQGA [I7Q]: the protein stability index is 3.2.

Take TLSEAYEQIWKRRDNDETNQQGA [I7E]: the protein stability index stood at 3.69.

Take TLSTAYIQIWKRRDNDETNQQGA [E4T]: the protein stability index worked out at 2.74.

On to TLSNAYIQIWKRRDNDETNQQGA [E4N], for which the protein stability index was found to be 2.05.

With TLSYAYIQIWKRRDNDETNQQGA [E4Y], the protein stability index stood at 2.04.

With TLSSAYIQIWKRRDNDETNQQGA [E4S], the protein stability index was 1.76.

For TLSWAYIQIWKRRDNDETNQQGA [E4W], the protein stability index was 1.73.

Regarding TLSRAYIQIWKRRDNDETNQQGA [E4R], the protein stability index was 2.97.

For TLSPAYIQIWKRRDNDETNQQGA [E4P], the protein stability index was 3.17.

For the variant TLSVAYIQIWKRRDNDETNQQGA [E4V], the protein stability index was found to be 2.12.

For the variant TLSQAYIQIWKRRDNDETNQQGA [E4Q], the protein stability index turned out to be 2.32.
